Results as given in patent publication US20150297748A1 (Daiichi Sankyo, published 2015).

B1: Antibody-drug conjugate (6) (antibody, human IgG1, kappa, V domains shown)
VH: QIQLQQSGPEVVKPGASVKISCKASGYTFTDYYITWVKQKPGQGLEWIGWIYPGSGNTKYNEKFKGKATLTVDTSSSTAFMQLSSLTSEDTAVYFCANYGNYWFAYWGQGTQVTVSA
VL: DIVLTQSPASLAVSLGQRATISCKASQSVDFDGDSYMNWYQQKPGQPPKVLIYAASNLESGIPARFSGSGSGTDFTLNIHPVEEEDAATYYCQQSNQDPWTFGGGTKLEIKR
modifications: drug-linker 6-maleimidohexanoyl-GGFG-NH-(CH2)3-C(=O)-exatecan (compound of Process 3 of Example 2) on cysteines of the reduced hinge disulfide bonds; average 3.3 per antibody molecule; positions not given
B2: Antibody-drug conjugate (7) (antibody, V domains shown)
VH: QIQLQQSGPEVVKPGASVKISCKASGYTFTDYYITWVKQKPGQGLEWIGWIYPGSGNTKYNEKFKGKATLTVDTSSSTAFMQLSSLTSEDTAVYFCANYGNYWFAYWGQGTQVTVSA
VL: DIVLTQSPASLAVSLGQRATISCKASQSVDFDGDSYMNWYQQKPGQPPKVLIYAASNLESGIPARFSGSGSGTDFTLNIHPVEEEDAATYYCQQSNQDPWTFGGGTKLEIKR
modifications: drug-linker 6-maleimidohexanoyl-GGFG-NH-(CH2)3-C(=O)-exatecan (compound of Process 3 of Example 2) on cysteines of the reduced hinge disulfide bonds; average 3.8 per antibody molecule; positions not given
B3: Antibody-drug conjugate (22) (antibody, V domains shown)
VH: QIQLQQSGPEVVKPGASVKISCKASGYTFTDYYITWVKQKPGQGLEWIGWIYPGSGNTKYNEKFKGKATLTVDTSSSTAFMQLSSLTSEDTAVYFCANYGNYWFAYWGQGTQVTVSA
VL: DIVLTQSPASLAVSLGQRATISCKASQSVDFDGDSYMNWYQQKPGQPPKVLIYAASNLESGIPARFSGSGSGTDFTLNIHPVEEEDAATYYCQQSNQDPWTFGGGTKLEIKR
modifications: drug-linker 3-maleimidopropanoyl-NH-(CH2CH2O)2-CH2CH2-C(=O)-GGFG-NH-(CH2)3-C(=O)-exatecan (compound of Process 1 of Example 14) on cysteines of the reduced hinge disulfide bonds; average 2.5 per antibody molecule; positions not given
B4: Antibody-drug conjugate (65) (antibody, V domains shown)
VH: QIQLQQSGPEVVKPGASVKISCKASGYTFTDYYITWVKQKPGQGLEWIGWIYPGSGNTKYNEKFKGKATLTVDTSSSTAFMQLSSLTSEDTAVYFCANYGNYWFAYWGQGTQVTVSA
VL: DIVLTQSPASLAVSLGQRATISCKASQSVDFDGDSYMNWYQQKPGQPPKVLIYAASNLESGIPARFSGSGSGTDFTLNIHPVEEEDAATYYCQQSNQDPWTFGGGTKLEIKR
modifications: drug-linker 6-maleimidohexanoyl-GGFG-NH-CH2-O-CH2-C(=O)-exatecan (compound of Process 8 of Example 58) on cysteines of the reduced hinge disulfide bonds; average 6.8 per antibody molecule; positions not given
B5: Antibody-drug conjugate (64) (antibody, V domains shown)
VH: QIQLQQSGPEVVKPGASVKISCKASGYTFTDYYITWVKQKPGQGLEWIGWIYPGSGNTKYNEKFKGKATLTVDTSSSTAFMQLSSLTSEDTAVYFCANYGNYWFAYWGQGTQVTVSA
VL: DIVLTQSPASLAVSLGQRATISCKASQSVDFDGDSYMNWYQQKPGQPPKVLIYAASNLESGIPARFSGSGSGTDFTLNIHPVEEEDAATYYCQQSNQDPWTFGGGTKLEIKR
modifications: drug-linker 6-maleimidohexanoyl-GGFG-NH-CH2-O-CH2-C(=O)-exatecan (compound of Process 8 of Example 58) on cysteines of the reduced hinge disulfide bonds; average 3.7 per antibody molecule; positions not given
B6: Antibody-drug conjugate (38) (antibody, V domains shown)
VH: QIQLQQSGPEVVKPGASVKISCKASGYTFTDYYITWVKQKPGQGLEWIGWIYPGSGNTKYNEKFKGKATLTVDTSSSTAFMQLSSLTSEDTAVYFCANYGNYWFAYWGQGTQVTVSA
VL: DIVLTQSPASLAVSLGQRATISCKASQSVDFDGDSYMNWYQQKPGQPPKVLIYAASNLESGIPARFSGSGSGTDFTLNIHPVEEEDAATYYCQQSNQDPWTFGGGTKLEIKR
modifications: drug-linker from the N-succinimidyl ester of suberoyl-GGFG-NH-(CH2)3-C(=O)-exatecan (compound of Process 1 of Example 37); average 2.7 per antibody molecule; chain and positions not stated
B7: Antibody-drug conjugate (23) (antibody, V domains shown)
VH: QIQLQQSGPEVVKPGASVKISCKASGYTFTDYYITWVKQKPGQGLEWIGWIYPGSGNTKYNEKFKGKATLTVDTSSSTAFMQLSSLTSEDTAVYFCANYGNYWFAYWGQGTQVTVSA
VL: DIVLTQSPASLAVSLGQRATISCKASQSVDFDGDSYMNWYQQKPGQPPKVLIYAASNLESGIPARFSGSGSGTDFTLNIHPVEEEDAATYYCQQSNQDPWTFGGGTKLEIKR
modifications: drug-linker 3-maleimidopropanoyl-NH-(CH2CH2O)2-CH2CH2-C(=O)-GGFG-NH-(CH2)3-C(=O)-exatecan (compound of Process 1 of Example 14) on cysteines of the reduced hinge disulfide bonds; average 7.1 per antibody molecule; positions not given
B8: Antibody-drug conjugate (5) (antibody, human IgG1, kappa, V domains shown)
VH: QVQLVQSGAEVKKPGSSVKVSCKASGYTFTNYVMHWVRQAPGQGLEWMGYINPYNDDVKYNEKFKGRVTITADESTSTAYMELSSLRSEDTAVYYCARWGYYGSPLYYFDYWGQGTLVTVSS
VL: EIVLTQSPATLSLSPGERATLSCRASSRLIYMHWYQQKPGQAPRPLIYATSNLASGIPARFSGSGSGTDFTLTISSLEPEDFAVYYCQQWNSNPPTFGQGTKVEIKR
modifications: drug-linker 6-maleimidohexanoyl-GGFG-NH-(CH2)3-C(=O)-exatecan (compound of Process 3 of Example 2) on cysteines of the reduced hinge disulfide bonds; average 6.7 per antibody molecule; positions not given

What follows are binders tested against T1, CD30 (UniProt P28908 19-595, limits assumed) (assay: cell-based or functional assay).
T1 sequence (looked up): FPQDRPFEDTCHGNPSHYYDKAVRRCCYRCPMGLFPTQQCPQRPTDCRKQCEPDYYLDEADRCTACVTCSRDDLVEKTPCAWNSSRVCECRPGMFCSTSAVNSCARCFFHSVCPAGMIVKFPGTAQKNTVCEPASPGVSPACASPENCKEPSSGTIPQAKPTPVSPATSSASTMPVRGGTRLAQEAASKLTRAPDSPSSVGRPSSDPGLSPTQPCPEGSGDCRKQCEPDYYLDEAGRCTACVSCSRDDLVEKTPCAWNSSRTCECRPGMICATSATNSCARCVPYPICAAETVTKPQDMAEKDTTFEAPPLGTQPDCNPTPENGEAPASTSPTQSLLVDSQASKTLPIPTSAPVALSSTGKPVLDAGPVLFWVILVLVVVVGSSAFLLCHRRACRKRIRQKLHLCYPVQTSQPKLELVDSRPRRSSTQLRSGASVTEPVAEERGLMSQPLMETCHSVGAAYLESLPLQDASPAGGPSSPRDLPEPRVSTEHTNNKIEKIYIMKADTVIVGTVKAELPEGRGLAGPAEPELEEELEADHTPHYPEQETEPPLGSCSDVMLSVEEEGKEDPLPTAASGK
B1 was tested, and the “IC50, cytotoxic activity against the SR cells” value (“IC50 … against the SR cells” for short) was less than 0.01 nM. B2 was tested, and the “IC50 … against the SR cells” value was less than 0.01 nM. For B3, the “IC50 … against the SR cells” value was less than 0.1 nM. In the case of B4, the “IC50 … against the SR cells” value is reported as less than 0.01 nM. B5 was tested, and the “IC50 … against the SR cells” value was less than 0.01 nM. In the case of B6, the “IC50 … against the SR cells” value is reported as less than 0.01 nM. With B7 the “IC50 … against the SR cells” value was less than 0.01 nM.

What follows are binders tested against T2, human B7-H3 variant 1 (human, UniProt Q5ZPR3 27-534) (assay: cell-based or functional assay).
T2 sequence: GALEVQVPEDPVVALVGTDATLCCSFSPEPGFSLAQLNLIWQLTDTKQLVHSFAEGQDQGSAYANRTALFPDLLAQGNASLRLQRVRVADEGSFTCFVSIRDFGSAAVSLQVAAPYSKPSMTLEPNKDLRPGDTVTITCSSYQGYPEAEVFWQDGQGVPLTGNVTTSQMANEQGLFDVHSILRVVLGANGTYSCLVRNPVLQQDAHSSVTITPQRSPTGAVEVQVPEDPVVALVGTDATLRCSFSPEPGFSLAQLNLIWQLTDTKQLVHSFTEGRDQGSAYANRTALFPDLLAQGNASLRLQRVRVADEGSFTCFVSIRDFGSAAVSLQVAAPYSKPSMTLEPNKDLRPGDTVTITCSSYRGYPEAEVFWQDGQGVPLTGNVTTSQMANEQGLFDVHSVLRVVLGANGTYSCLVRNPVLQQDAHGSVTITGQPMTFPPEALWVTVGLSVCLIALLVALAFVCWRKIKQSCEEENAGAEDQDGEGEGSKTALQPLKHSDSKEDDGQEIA
In the case of B8, the “IC50, cytotoxic activity against the CEM_V1-3.1-2 cells” value is reported as less than 0.1 nM.
